Where a chain is given by its changes, count along the chain named.
B1: reshaped human SK2 antibody, L chain version "a" and H chain version "a" (antibody, V domains shown)
VH: QVTLRESGPALVRPTQTLTLTCTFSGFSLSTSGMTVGWIRQPPGEALEWLAHIWWNDDKYYNPALKGRLAVSKDTSKNQVVLSMNTVGPGDTATYYCARMEDYDEAMDYWGQGILVTVSS
VL: DIQMTQSPSSLSASVGDRVTITCRASENIYSNLAWYQQKPGKAPKLLIYAATYLADGVPSRFSGSGSGTDFTFTISSLQPEDIATYYCQHFWGTPPFGQGTKVEIK
B2: reshaped human SK2 antibody, L chain version "a" and H chain version "b" (antibody, V domains shown)
VH: B1 VH with S30N
VL: B1 VL
B3: reshaped human SK2 antibody, L chain version "b" and H chain version "a" (antibody, V domains shown)
VH: B1 VH
VL: B1 VL with F71Y
B4: reshaped human SK2 antibody, L chain version "b" and H chain version "b" (antibody, V domains shown)
VH: B1 VH with S30N
VL: B1 VL with F71Y
B5: chimeric SK2 antibody (antibody, V domains shown)
VH: QVTLKESGPGILQPSQTLSLTCSFSGFSLNTSGMTVGWIRQPSGKGLEWLAHIWWNDDKYYNPALKGRLTISKDTSNNQVFLKIASVVTADTATYYCARMEDYDEAMDYWGQGTSVTVSS
VL: DIQMTQSPASLSVSVGETVTITCRASENIYSNLAWYQQKQGKSPQLLVYAATYLADGVPSRFSGSGSGTQYSLKINSLQSEDFGSYYCQHFWGTPPFGSGTKLEIK
B6: antibody comprising reshaped L chain version "b" and chimeric H chain (antibody, V domains shown)
VH: B5 VH
VL: B1 VL with F71Y
B7: antibody comprising reshaped L chain version "a" and chimeric H chain (antibody, V domains shown)
VH: B5 VH
VL: B1 VL

Columns and labels:
[1] = biological target: T1, biotinylated IL-6 (human, UniProt P05231, biotinylated (site not stated)); test: binding-inhibition ELISA, IL-6 to IL-6R (FIG. 10)
Method: (§1) For binding-inhibition assay, an ELISA plate was prepared as follows. A 96-well plate was coated with mouse monoclonal antibody, MT-18 (Hirata, Y. et al., J. Immunol., 143, 2900–2907, 1989), specific to human IL-6 receptor (IL-6R), and, after blocking, soluble recombinant human IL-6R (SR344) (Yasukawa, K. et al., J. Biochem. 108, 673–676, 1990) was added thereto. A sample of this chimeric SK2 antibody was sequentially diluted, and added with biotinylated IL-6 to each well, and after adding an alkaline phosphatase-conjugated streptavidin thereto, absorbance at 405 nm was measured.

[2] = biological target: T2, recombinant human IL-6 (human, UniProt P05231); test: antigen-binding ELISA (FIG. 9)
Method: (§2) An ELISA plate for antigen-binding assay was prepared as follows. A 96-well plate was coated with mouse monoclonal antibody MH166 recognizing a different epitope of human IL-6 from that recognized by SK2 (Matsuda, T. et al., Eur. J. Immunol. 18, 951–956, 1988), and after blocking, recombinant human IL-6 was added thereto. A sample of the chimeric SK2 antibody was sequentially diluted, added to each well, and then an alkaline phosphatase-conjugated goat anti-human IgG antibody (Sigma) was added thereto. After incubation and washing, substrate was added, and absorbance at 405 nm was measured.

[3] = biological target: T2, recombinant human IL-6; test: ELISA, told in the description of the chimeric antibody
Method: as §2

[4] = biological target: T1, biotinylated IL-6; test: binding-inhibition ELISA, IL-6 to IL-6R (FIG. 10), reference
Method: as §1

[5] = biological target: T2, recombinant human IL-6; test: antigen-binding ELISA (FIG. 8)
Method: as §2

| binding result [1] | binding result [2] | also measured | Binder |
| --- | --- | --- | --- |
| binds | binds |  | B1 |
| binds | binds |  | B2 |
| binds | binds |  | B3 |
|  | binds |  | B4 |
|  |  | binding result [3]: binds; binding result [4]: binds | B5 |
|  |  | binding result [5]: binds | B6 |
|  |  | binding result [5]: binds | B7 |

From patent US5856135, “Reshaped human antibody to human interleukin-6” (Chugai Seiyaku Kabushiki Kaisha, dated 1999)
